This note sets out measurements from publication PMC6498860 (Cell, 2019).

This assay deals with histone H4 (Xenopus laevis, UniProt P62799 2-103). Kind of assay: cryo-EM structure.

B1: Dot1L(2-416) (domain or fragment)
chain: GEKLELRLKSPVGAEPAVYPWPLPVYDKHHDAAHEIIETIRWVCEEIPDLKLAMENYVLIDYDTKSFESMQRLCDKYNRAIDSIHQLWKGTTQPMKLNTRPSTGLLRHILQQVYNHSVTDPEKLNNYEPFSPEVYGETSFDLVAQMIDEIKMTDDDLFVDLGSGVGQVVLQVAAATNCKHHYGVEKADIPAKYAETMDREFRKWMKWYGKKHAEYTLERGDFLSEEWRERIANTSVIFVNNFAFGPEVDHQLKERFANMKEGGRIVSSKPFAPLNFRINSRNLSDIGTIMRVVELSPLKGSVSWTGKPVSYYLHTIDRTILENYFSSLKNPKLREEQEAARRRQQRESKSNAATPTKGPEGKVAGPADAPMDSGAEEEKAGAATVKKPSPSKARKKKLNKKGRKMAGRKRGRPKK
Take B1: the binding result was “binds”.
